# Measured values from patent US20170190786A1.
# Key:
# [1] = target: human ErbB2 on BT474 human breast tumor cells (human) (UniProt P04626); experiment: Scatchard analysis, 125I-labelled antibody on BT474 cell monolayers, 4 hours on ice
# [2] = target: human ErbB2 on BT474 human breast tumor cells (human) (UniProt P04626); experiment: cell-based or functional assay
Kd [1],% apoptosis of the BT474 cell population [2],proportion of S-phase cells (BT474) [2],Substance
6.5 nM,41.9%,5.4%,anti-ErbB2 IgG1κ murine monoclonal antibody 4D5
,60.5%,64.9%,anti-ErbB2 IgG1κ murine monoclonal antibody 7C2
